# From patent publication KR20230086338A (dated 2023)
# T1: 재조합 인간 MUC1-C 항원 (MUC1-C ECD) (human, UniProt P15941 1098-1158)
# T1 construct: also called 재조합 MUC1-C 단백질; 재조합 hMUC1-항원
# T1 sequence: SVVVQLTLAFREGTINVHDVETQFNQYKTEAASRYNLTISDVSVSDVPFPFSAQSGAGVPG
# B1: KC-001 항체 (인간 MUC1-C 항체 KC-001) (antibody, V domains shown)
# VH: QVQLVESGGGLVQPGGSLRLSCAASGFTFSNYGMSWVRQAPGKGLEWVSSISNGGGSTSYADSVKGRFTISRDNSKNTLYLQMNSLRAEDTAVYYCAGWGIRGVTRPYYYYGMDVWGQGTTITVSS
# VL: DIVMTQTPLSLSVTPGQPASISCKSSQSLLHSDRKTYLYWYLQKPGQSPQLLIYEASNRFSGVPDRFSGGGSGTDFTLKISRVEADDVGIYYCMQGLHPIT
# notes: Human antibody from a naive scFv phage library; also called 항-MUC1 항체
# Target: T1, 재조합 인간 MUC1-C 항원 (MUC1-C ECD)
# Assay: BLI (Octet RED 96); MUC1-C antigen immobilised on AR2G sensor at 5 μg/mL, antibody 0.626-20 nM, 1:2 binding model
binder,measurement,value
B1,Kd,6.49 nM
